Measurements reported in article PMC6465399, “S-nitrosylation of the Peroxiredoxin-2 promotes S-nitrosoglutathione-mediated lung cancer cells apoptosis via AMPK-SIRT1 pathway” (Cell Death & Disease, 2019).

Target: the molecule itself
Assay: non-reducing SDS-PAGE and immunoblot (dimer/monomer detection); A549 cells untreated or treated with GSNO for 24 h; 100 mM N-ethyl maleimide for 20 min at 37 °C to preserve the Prdx2 redox state; nonreducing lysis buffer (100 mM Tris-HCl pH 6.8, 10% glycerol, 2% SDS) with 100 mM NEM; immunoblot for Prdx2

B1: Peroxiredoxin-2 (enzyme, human (endogenous in A549), UniProt P32119 1-198, looked up)
chain: MASGNARIGKPAPDFKATAVVDGAFKEVKLSDYKGKYVVLFFYPLDFTFVCPTEIIAFSNRAEDFRKLGCEVLGVSVDSQFTHLAWINTPRKEGGLGPLNIPLLADVTRRLSEDYGVLKTDEGIAYRGLFIIDGKGVLRQITVNDLPVGRSVDEALRLVQAFQYTDEHGEVCPAGWKPGSDTIKPNVDDSKEYFSKHN
notes: Peroxiredoxin-2 (Prdx2), endogenous in human A549 lung cancer cells; three cysteines Cys51, Cys70, Cys172; The dimer seen on the non-reducing gel is the disulfide-linked (Cys51-Cys172) form; also called Prdx2; source: endogenous, A549 cells, in lysate
stoichiometry N: 2
